Literature values, collected in publication doi:10.1101/2025.09.24.678334.

Molecular target: TATA-binding protein (Homo sapiens) (UniProt P20226)
Chain of UniProt P20226 (P20226 whole entry): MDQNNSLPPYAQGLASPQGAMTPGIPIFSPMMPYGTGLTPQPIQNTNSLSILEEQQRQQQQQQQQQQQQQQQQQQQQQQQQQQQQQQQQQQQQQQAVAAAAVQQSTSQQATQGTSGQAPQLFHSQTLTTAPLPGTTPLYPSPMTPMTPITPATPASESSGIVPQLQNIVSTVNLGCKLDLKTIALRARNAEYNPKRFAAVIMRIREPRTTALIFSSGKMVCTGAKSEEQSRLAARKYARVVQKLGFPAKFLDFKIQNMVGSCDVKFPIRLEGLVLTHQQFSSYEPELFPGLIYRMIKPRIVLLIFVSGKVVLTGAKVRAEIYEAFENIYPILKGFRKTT

Kd: 1 nM
Substance: Importin 9 (from UniProt Q96P70)
